# Assay results from paper PMC9601868.
# pKd: −log10 of the molar value.
# Target: ZFP932 KRAB domain (5–76), AviTagged, monobiotinylated (murine)
# Experiment: SPR; Biacore X100, Sensor Chip CAP; monobiotinylated KRAB domain immobilised (~100 RU); 1 μM Trim28 RBCC injected 60 s, 600 s wash; 10 mM TRIS/HCl pH 8.0, 300 mM NaCl, 0.1 mM TCEP, 0.005% tween 20; kinetic analysis, two-state reaction model
# ZFP932 KRAB domain (5–76), AviTagged, monobiotinylated (murine), sequence (E9QAG8 5-76): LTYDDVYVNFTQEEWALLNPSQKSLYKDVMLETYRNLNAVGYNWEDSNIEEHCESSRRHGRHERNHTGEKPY
row,pKd,Substance
1,7.84,"Trim28 RBCC (58–418), wild type (from UniProt Q62318 58-418) (domain or fragment)"
2,6.50,Trim28 RBCC (58–418) V294S (from UniProt Q62318 58-418) (domain or fragment)
3,6.49,Trim28 RBCC (58–418) M298A (from UniProt Q62318 58-418) (domain or fragment)
4,6.88,Trim28 RBCC (58–418) K290E (from UniProt Q62318 58-418) (domain or fragment)
5,6.67,Trim28 RBCC (58–418) R312E (from UniProt Q62318 58-418) (domain or fragment)
6,7.43,Trim28 RBCC (58–418) K290A (from UniProt Q62318 58-418) (domain or fragment)
7,7.27,Trim28 RBCC (58–418) K297A (from UniProt Q62318 58-418) (domain or fragment)
8,6.95,Trim28 RBCC (58–418) V294A (from UniProt Q62318 58-418) (domain or fragment)
9,7.62,Trim28 RBCC (58–418) M304A (from UniProt Q62318 58-418) (domain or fragment)
10,7.45,Trim28 RBCC (58–418) I300S (from UniProt Q62318 58-418) (domain or fragment)
11,7.58,Trim28 RBCC (58–418) I300A (from UniProt Q62318 58-418) (domain or fragment)
12,7.56,Trim28 RBCC (58–418) R312A (from UniProt Q62318 58-418) (domain or fragment)
13,7.51,Trim28 RBCC (58–418) K305A (from UniProt Q62318 58-418) (domain or fragment)
14,6.17,Trim28 RBCC (58–418) M298S (from UniProt Q62318 58-418) (domain or fragment)
15,7.69,Trim28 RBCC (58–418) M304S (from UniProt Q62318 58-418) (domain or fragment)

# Target: ZFP932 KRAB domain (5–76), AviTagged, monobiotinylated (murine)
# Experiment: SPR; Biacore X100, Sensor Chip CAP; monobiotinylated KRAB domain immobilised; concentration series of Trim28 RBCC, 60 s injections; 10 mM TRIS/HCl pH 8.0, 300 mM NaCl, 0.1 mM TCEP, 0.005% tween 20; equilibrium analysis
row,pKd,Substance
1,4.51,Trim28 RBCC (58–418) L301S (from UniProt Q62318 58-418) (domain or fragment)
2,4.80,Trim28 RBCC (58–418) K305E (from UniProt Q62318 58-418) (domain or fragment)
3,5.19,Trim28 RBCC (58–418) L301A (from UniProt Q62318 58-418) (domain or fragment)
